pKd: −log10 of the molar value.
Biological target: Human fibrinogen (human) (UniProt P02671)
Assay: ELISA; Fg coated on wells (5 μg/ml, 0.5 μg/well); GST-vWbp or GST-Coa proteins in 1% BSA, 0.05% Tween 20, TBS, 1 h at room temperature; detected with HRP anti-GST; one-site fit, apparent KD, mean of three experiments

Sequence of Human fibrinogen (human) (P02671 36-866, chain 1 of 3): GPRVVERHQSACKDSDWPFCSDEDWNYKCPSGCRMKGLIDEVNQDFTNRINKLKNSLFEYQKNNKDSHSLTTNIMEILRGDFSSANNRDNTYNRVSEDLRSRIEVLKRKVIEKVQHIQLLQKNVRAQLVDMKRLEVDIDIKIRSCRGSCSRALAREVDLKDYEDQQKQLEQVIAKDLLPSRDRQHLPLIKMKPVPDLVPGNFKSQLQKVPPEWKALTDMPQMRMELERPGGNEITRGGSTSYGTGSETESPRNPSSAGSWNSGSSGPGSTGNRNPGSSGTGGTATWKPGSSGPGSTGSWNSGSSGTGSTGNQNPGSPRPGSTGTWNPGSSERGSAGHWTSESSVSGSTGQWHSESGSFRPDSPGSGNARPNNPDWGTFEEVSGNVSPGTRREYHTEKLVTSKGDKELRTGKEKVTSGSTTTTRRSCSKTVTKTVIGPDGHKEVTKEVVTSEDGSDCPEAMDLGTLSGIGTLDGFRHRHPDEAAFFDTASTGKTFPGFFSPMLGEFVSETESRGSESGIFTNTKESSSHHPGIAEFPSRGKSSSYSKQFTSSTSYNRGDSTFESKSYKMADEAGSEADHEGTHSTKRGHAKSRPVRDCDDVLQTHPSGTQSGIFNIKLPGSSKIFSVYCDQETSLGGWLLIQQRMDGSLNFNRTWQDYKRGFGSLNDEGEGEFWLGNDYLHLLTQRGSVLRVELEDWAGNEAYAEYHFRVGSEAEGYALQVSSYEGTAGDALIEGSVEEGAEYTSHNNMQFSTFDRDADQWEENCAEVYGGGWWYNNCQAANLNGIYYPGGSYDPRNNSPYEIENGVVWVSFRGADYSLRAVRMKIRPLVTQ
Sequence of Human fibrinogen (human) (P02675 45-491, chain 2 of 3, further chain): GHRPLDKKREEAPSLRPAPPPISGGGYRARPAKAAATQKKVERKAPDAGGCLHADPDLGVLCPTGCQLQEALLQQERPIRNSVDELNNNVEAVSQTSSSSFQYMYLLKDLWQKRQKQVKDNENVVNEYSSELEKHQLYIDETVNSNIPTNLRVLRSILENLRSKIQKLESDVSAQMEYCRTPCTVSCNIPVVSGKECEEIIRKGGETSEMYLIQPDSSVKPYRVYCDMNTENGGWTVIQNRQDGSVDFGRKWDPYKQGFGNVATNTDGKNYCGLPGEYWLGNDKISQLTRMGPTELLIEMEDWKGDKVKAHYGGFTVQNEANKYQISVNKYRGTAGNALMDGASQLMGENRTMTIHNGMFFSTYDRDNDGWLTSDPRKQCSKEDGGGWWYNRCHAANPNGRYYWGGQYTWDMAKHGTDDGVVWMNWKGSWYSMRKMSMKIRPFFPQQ
Sequence of Human fibrinogen (human) (P02679 27-453, chain 3 of 3, further chain): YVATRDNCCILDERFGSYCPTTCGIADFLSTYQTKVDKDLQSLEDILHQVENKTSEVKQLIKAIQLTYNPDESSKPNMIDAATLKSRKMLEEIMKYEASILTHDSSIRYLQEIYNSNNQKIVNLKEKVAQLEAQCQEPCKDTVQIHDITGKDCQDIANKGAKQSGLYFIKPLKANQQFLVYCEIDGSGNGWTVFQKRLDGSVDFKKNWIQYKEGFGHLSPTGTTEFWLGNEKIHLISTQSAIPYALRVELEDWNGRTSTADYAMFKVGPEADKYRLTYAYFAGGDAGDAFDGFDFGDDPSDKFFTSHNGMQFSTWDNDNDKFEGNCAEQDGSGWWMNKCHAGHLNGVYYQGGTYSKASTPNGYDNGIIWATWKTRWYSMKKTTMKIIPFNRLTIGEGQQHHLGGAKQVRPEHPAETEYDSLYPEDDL

Row | Substance | pKd
1 | GST-vWbp-C (C-terminal half of vWbp) (domain or fragment) | 7.42
2 | GST-vWbp-N (N-terminal half of vWbp) (domain or fragment) | 8.49
